Test results as given in patent US20140178394A1 (INSERM INSTITUT NATIONAL DE LA SANTE ET DE LA RECHERCHE …, published 2014).

B1: Nectin4 peptide 238 (HILHVSFLA) (peptide)
peptide: HILHVSFLA
notes: Synthetic nonapeptide of human nectin4; the number is the start position in nectin4 (the range counts on nectin4)
B2: Nectin4 peptide 354 (GVIAALLFC) (peptide)
peptide: GVIAALLFC
notes: Synthetic nonapeptide of human nectin4; the range counts on nectin4
B3: antigen peptide N4-145 (VLVPPLPSL) (peptide)
peptide: VLVPPLPSL
notes: as for B2
B4: Nectin4 peptide 203 (AVTSEFHLV) (peptide)
peptide: AVTSEFHLV
notes: as for B2
B5: Nectin4 peptide 215 (SMNGQPLTC) (peptide)
peptide: SMNGQPLTC
notes: as for B2
B6: Nectin4 peptide 239 (ILHVSFLAE) (peptide)
peptide: ILHVSFLAE
notes: as for B2
B7: Nectin4 peptide 244 (FLAEASVRG) (peptide)
peptide: FLAEASVRG
notes: as for B2
B8: Nectin4 peptide 255 (DQNLWHIGR) (peptide)
peptide: DQNLWHIGR
notes: as for B2
B9: Nectin4 peptide 266 (AMLKCLSEG) (peptide)
peptide: AMLKCLSEG
notes: as for B2
B10: Nectin4 peptide 345 (LVSASVVVV) (peptide)
peptide: LVSASVVVV
notes: as for B2
B11: Nectin4 peptide 347 (SASVVVVGV) (peptide)
peptide: SASVVVVGV
notes: as for B2
B12: Nectin4 peptide 351 (VVVGVIAAL) (peptide)
peptide: VVVGVIAAL
notes: as for B2
B13: Nectin4 peptide 355 (VIAALLFCL) (peptide)
peptide: VIAALLFCL
notes: as for B2
B14: Nectin4 peptide 357 (AALLFCLLV) (peptide)
peptide: AALLFCLLV
notes: as for B2
B15: Nectin4 peptide 358 (ALLFCLLVV) (peptide)
peptide: ALLFCLLVV
notes: as for B2
B16: Nectin4 peptide 359 (LLFCLLVVV) (peptide)
peptide: LLFCLLVVV
notes: as for B2
B17: Nectin4 peptide 80 (ALLHSKYGL) (peptide)
peptide: ALLHSKYGL
notes: Synthetic nonapeptide of human nectin4; the range counts on nectin4; also called Pep N° 80
B18: Nectin4 peptide 443 (RSYSTLTTV) (peptide)
peptide: RSYSTLTTV
notes: as for B2
B19: Nectin4 peptide 21 (LLASFTGRC) (peptide)
peptide: LLASFTGRC
notes: Synthetic nonapeptide of human nectin4; the range counts on nectin4; also called Pep N° 21
B20: Nectin4 peptide 137 (FQARLRLRV) (peptide)
peptide: FQARLRLRV
notes: as for B2
B21: Nectin4 peptide 19 (LLLLASFTG) (peptide)
peptide: LLLLASFTG
notes: as for B2
B22: Nectin4 peptide 35 (GTSDVVTVV) (peptide)
peptide: GTSDVVTVV
notes: as for B2
B23: reference peptide 520 (GnTV), VLPDVFIRC (peptide)
peptide: VLPDVFIRC
notes: Control peptide from the literature, tested here; also called GnTV peptide
B24: reference peptide 519 (Tyrosinase), YMDGTMSQV (peptide)
peptide: YMDGTMSQV
notes: Control peptide from the literature, tested here; also called tyrosinase peptide
B25: reference peptide 517 (MAGE-A10), GLYDGMEHL (peptide)
peptide: GLYDGMEHL
notes: Control peptide from the literature, tested here
B26: reference peptide 503 (PR3; Proteinase3), NLSASVATV (peptide)
peptide: NLSASVATV
notes: as for B25
B27: reference peptide 515 (MAGE-A3), KVAELVHFL (peptide)
peptide: KVAELVHFL
notes: as for B25

The binders below were run against T1, HLA-A*0201 HLA class I MHC monomer (iTopia Epitope Discovery System, coated on plate) (human) (assay: iTopia EDS off-rate assay at 37 C; time to 50% complex dissociation).
T1 construct: Placeholder peptide stripped; also called HLA-A2; MHC class I monomer
From the text: (§1) Microtiter 96 well plates containing HLA class I MHC monomer loaded with the human β2-microglobulin and a “placeholder” peptide were used to evaluate peptide binding, affinity, and off-rate.
(§2) This assay evaluates the dissociation rate of “binder” peptides as a function of time.
B1 was tested, and the “T½ Value” was 6.7 h. With B2 the “T½ Value” was 6.2 h. With B3 the “T½ Value” was 7.4 h. For B4, the “T½ Value” was 3.5 h. In the case of B5, the “T½ Value” is reported as 6.8 h. With B6 the “T½ Value” was 2.3 h. For B7, the “T½ Value” was 2.8 h. In the case of B8, the “T½ Value” is reported as 5.4 h. In the case of B9, the “T½ Value” is reported as 6.8 h. B10 was tested, and the “T½ Value” was 2.3 h. For B11, the “T½ Value” was 3.7 h. With B12 the “T½ Value” was 3.4 h. With B13 the “T½ Value” was 5.2 h. B14 was tested, and the “T½ Value” was 3.8 h. For B15, the “T½ Value” was 6.1 h. With B16 the “T½ Value” was 7.4 h. In the case of B17, the “T½ Value” is reported as 7.8 h. With B18 the “T½ Value” was 2.4 h. B19 was tested, and the “T½ Value” was 6 h. In the case of B20, the “T½ Value” is reported as 7.3 h. For B21, the “T½ Value” was 2.1 h. With B22 the “T½ Value” was 2.9 h.

Each binder was assayed against T2, HLA-A*0201 on the CEM.T2 cell line (T2) (human) (assay: T2 cell HLA-A*0201 stabilization, 100 µM peptide, flow cytometry; % of HBV positive control).
T2 construct: whole, on cells
Method: (§3) After 3 washes, cells were fixed in PBS supplemented with 2% paraformaldehyde and analyzed by FACS (FACScan, BD Bioscience). The percentage of peptide binding was calculated as follows:
B1 was tested, and the “CEM.T2 % Binding” value was 37%. B2 was tested, and the “CEM.T2 % Binding” value was 10%. With B3 the “CEM.T2 % Binding” value was 76%. B4 was tested, and the “CEM.T2 % Binding” value was 48%. With B5 the “CEM.T2 % Binding” value was 21%. B6 was tested, and the “CEM.T2 % Binding” value was 10%. With B7 the “CEM.T2 % Binding” value was 12%. For B8, the “CEM.T2 % Binding” value was 6%. For B9, the “CEM.T2 % Binding” value was 31%. With B10 the “CEM.T2 % Binding” value was 11%. For B11, the “CEM.T2 % Binding” value was 40%. With B12 the “CEM.T2 % Binding” value was 82%. B13 was tested, and the “CEM.T2 % Binding” value was 18%. B14 was tested, and the “CEM.T2 % Binding” value was 15%. With B15 the “CEM.T2 % Binding” value was 26%. In the case of B16, the “CEM.T2 % Binding” value is reported as 7%. B17 was tested, and the “CEM.T2 % Binding” value was 53%. For B18, the “CEM.T2 % Binding” value was 37%. B19 was tested, and the “CEM.T2 % Binding” value was 44%. For B20, the “CEM.T2 % Binding” value was 30%. In the case of B21, the “CEM.T2 % Binding” value is reported as 17%. B22 was tested, and the “CEM.T2 % Binding” value was 60%.

What follows are binders tested against T1, HLA-A*0201 HLA class I MHC monomer … (assay: iTopia EDS affinity assay; peptide titration (ED50)).
B3 showed an EC50 of roughly 100 nM. B17 gave an EC50 of roughly 100 nM. B19 gave an EC50 of roughly 100 nM.

Each binder was assayed against T1, HLA-A*0201 HLA class I MHC monomer … (assay: iTopia EDS peptide binding assay on plate-coated MHC monomer; % of positive control peptide).
In the case of B1, the “% Binding” value is reported as 87%. With B2 the “% Binding” value was 61%. B3 was tested, and the “% Binding” value was 67%. With B4 the “% Binding” value was 64%. For B5, the “% Binding” value was 81%. In the case of B6, the “% Binding” value is reported as 61%. B7 was tested, and the “% Binding” value was 78%. In the case of B8, the “% Binding” value is reported as 62%. For B9, the “% Binding” value was 74%. For B10, the “% Binding” value was 51%. In the case of B11, the “% Binding” value is reported as 64%. For B12, the “% Binding” value was 58%. With B13 the “% Binding” value was 59%. In the case of B14, the “% Binding” value is reported as 56%. B15 was tested, and the “% Binding” value was 53%. B16 was tested, and the “% Binding” value was 67%. B17 was tested, and the “% Binding” value was 87%. In the case of B18, the “% Binding” value is reported as 68%. In the case of B19, the “% Binding” value is reported as 91%. With B20 the “% Binding” value was 69%. B21 was tested, and the “% Binding” value was 75%. With B22 the “% Binding” value was 63%.

The binders below were run against T1, HLA-A*0201 HLA class I MHC monomer … (assay: overall rank from iTopia EDS and CEM T2 assays on HLA-A*0201).
In the case of B1, the “RANK F-Score” value is reported as 7. With B3 the “RANK F-Score” value was 6. In the case of B12, the “RANK F-Score” value is reported as 5. In the case of B17, the “RANK F-Score” value is reported as 4. B23 was tested, and the “RANK F-Score” value was 1. With B24 the “RANK F-Score” value was 3. For B25, the “RANK F-Score” value was 8. In the case of B26, the “RANK F-Score” value is reported as 9. For B27, the “RANK F-Score” value was 10. In the case of B19, the “RANK F-Score” value is reported as 11.

These binders were tested against T2, HLA-A*0201 on the CEM.T2 cell line (T2) (assay: T2 cell HLA-A*0201 stabilization and dissociation, flow cytometry).
Method: as §3
(§4) After 3 washes, T2 cells were incubated for 3 h in serum-free RPMI at 37° C. Binding was then measured by FACS and after 4 h incubation. Percentage of Residual Binding (% RB) was calculated as follows:
For B3, the binding score was > 50 % of positive control. For B12, the binding score was > 50 % of positive control. In the case of B17, the binding score is reported as > 50 % of positive control.

These binders were tested against T1, HLA-A*0201 HLA class I MHC monomer … (assay: iTopia EDS off-rate assay).
Method: as §2
The relative stability of each complex was evaluated for a period of 8 h as described in material and methods. Off-rate stability was determined by measuring the dissociation time of the complex (t1/2).
Work on B3 yielded a t1/2 greater than 6 h. B17 was tested, and the t1/2 was greater than 6 h. B19 showed a t1/2 greater than 6 h.

The binders below were run against T1, HLA-A*0201 HLA class I MHC monomer … (assay: iTopia EDS multiparametric score (binding, off-rate, affinity)).
From the text: as §1
The iTopia system software was used to include, binding, off-rate (T1/2 value) and affinity (ED50 value) data collected for each peptide, in a multiparametric score called iScore.
Work on B1 yielded an iScore of 1.43. Binder B2 has an iScore of 0.845. B3 showed an iScore of 0.783. B4 gave an iScore of 0.533. Binder B5 has an iScore of 0.689. With B6 the iScore was 0.51. In the case of B7, the iScore is reported as 0.533. With B8 the iScore was 0.539. Binder B9 has an iScore of 0.667. With B10 the iScore was 0.626. In the case of B11, the iScore is reported as 0.708. B12 showed an iScore of 0.784. B13 was tested, and the iScore was 0.888. In the case of B14, the iScore is reported as 0.619. B15 was tested, and the iScore was 0.71. B16 gave an iScore of 0.674. Binder B17 has an iScore of 0.815. Work on B18 yielded an iScore of 0.521. B19 showed an iScore of 0.727. In the case of B20, the iScore is reported as 0.66. With B21 the iScore was 0.659. B22 gave an iScore of 0.539.

The binders below were run against T2, HLA-A*0201 on the CEM.T2 cell line (T2) (assay: T2 cell dissociation assay with Brefeldin A, flow cytometry).
Method: as §3, §4
In the case of B1, the “CEM.T2 % Residual Binding” value is reported as 66%. In the case of B2, the “CEM.T2 % Residual Binding” value is reported as 0%. With B3 the “CEM.T2 % Residual Binding” value was 54%. With B4 the “CEM.T2 % Residual Binding” value was 0%. For B5, the “CEM.T2 % Residual Binding” value was 0%. With B6 the “CEM.T2 % Residual Binding” value was 0%. B7 was tested, and the “CEM.T2 % Residual Binding” value was 0%. With B8 the “CEM.T2 % Residual Binding” value was 0%. In the case of B9, the “CEM.T2 % Residual Binding” value is reported as 39%. In the case of B10, the “CEM.T2 % Residual Binding” value is reported as 0%. In the case of B11, the “CEM.T2 % Residual Binding” value is reported as 0%. With B12 the “CEM.T2 % Residual Binding” value was 50%. With B13 the “CEM.T2 % Residual Binding” value was 24%. B14 was tested, and the “CEM.T2 % Residual Binding” value was 18%. B15 was tested, and the “CEM.T2 % Residual Binding” value was 26%. For B16, the “CEM.T2 % Residual Binding” value was 23%. For B17, the “CEM.T2 % Residual Binding” value was 86%. For B18, the “CEM.T2 % Residual Binding” value was 0%. In the case of B19, the “CEM.T2 % Residual Binding” value is reported as 86%. For B20, the “CEM.T2 % Residual Binding” value was 72%. In the case of B21, the “CEM.T2 % Residual Binding” value is reported as 0%. B22 was tested, and the “CEM.T2 % Residual Binding” value was 0%.

What follows are binders tested against T1, HLA-A*0201 HLA class I MHC monomer … (assay: iTopia EDS affinity assay; peptide titration, printed as Affinity (ED50)).
B1 gave an EC50 of 60 nM. Work on B2 yielded an EC50 of 90 nM. B3 was tested, and the EC50 was 500 nM. Work on B4 yielded an EC50 of 400 nM. For B5, the EC50 was 700 nM. B6 showed an EC50 of 200 nM. B7 was tested, and the EC50 was 700 nM. With B8 the EC50 was 500 nM. Binder B9 has an EC50 of 700 nM. B10 was tested, and the EC50 was 60 nM. Binder B11 has an EC50 of 200 nM. Work on B12 yielded an EC50 of 30 nM. Binder B13 has an EC50 of 30 nM. B14 showed an EC50 of 100 nM. For B15, the EC50 was 200 nM. B16 gave an EC50 of 500 nM. In the case of B17, the EC50 is reported as 1000 nM. In the case of B18, the EC50 is reported as 300 nM. B19 showed an EC50 of 600 nM. Binder B21 has an EC50 of 60 nM. Binder B22 has an EC50 of 300 nM.
